T1: human CEA protein on the cell surface (human, UniProt P06731 35-685)
T1 construct: whole, on cells; also called CEACAM-5; CD66e
T1 sequence (looked up): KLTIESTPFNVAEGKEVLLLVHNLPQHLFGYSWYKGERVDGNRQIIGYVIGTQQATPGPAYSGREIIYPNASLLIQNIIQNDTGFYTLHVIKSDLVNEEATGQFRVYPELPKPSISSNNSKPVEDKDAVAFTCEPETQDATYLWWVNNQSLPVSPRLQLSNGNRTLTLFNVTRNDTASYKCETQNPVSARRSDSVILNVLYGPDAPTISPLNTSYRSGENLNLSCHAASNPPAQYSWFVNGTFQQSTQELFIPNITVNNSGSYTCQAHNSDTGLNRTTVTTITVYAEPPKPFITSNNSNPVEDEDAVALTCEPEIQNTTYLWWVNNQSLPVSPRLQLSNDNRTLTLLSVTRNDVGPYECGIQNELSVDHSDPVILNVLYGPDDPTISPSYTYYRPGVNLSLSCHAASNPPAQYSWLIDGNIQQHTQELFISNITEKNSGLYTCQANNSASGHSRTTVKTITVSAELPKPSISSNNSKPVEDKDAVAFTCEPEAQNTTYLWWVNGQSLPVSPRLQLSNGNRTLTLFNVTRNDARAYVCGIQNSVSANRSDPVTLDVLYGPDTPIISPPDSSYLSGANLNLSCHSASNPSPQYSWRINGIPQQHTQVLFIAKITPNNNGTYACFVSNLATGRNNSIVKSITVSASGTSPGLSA

T2: monkey CEA expressed on CHO cell surface (cynomolgus monkey)
T2 construct: also called cynoCEA-CHO; monkey CEA proteins on the cell surface
T2 chain: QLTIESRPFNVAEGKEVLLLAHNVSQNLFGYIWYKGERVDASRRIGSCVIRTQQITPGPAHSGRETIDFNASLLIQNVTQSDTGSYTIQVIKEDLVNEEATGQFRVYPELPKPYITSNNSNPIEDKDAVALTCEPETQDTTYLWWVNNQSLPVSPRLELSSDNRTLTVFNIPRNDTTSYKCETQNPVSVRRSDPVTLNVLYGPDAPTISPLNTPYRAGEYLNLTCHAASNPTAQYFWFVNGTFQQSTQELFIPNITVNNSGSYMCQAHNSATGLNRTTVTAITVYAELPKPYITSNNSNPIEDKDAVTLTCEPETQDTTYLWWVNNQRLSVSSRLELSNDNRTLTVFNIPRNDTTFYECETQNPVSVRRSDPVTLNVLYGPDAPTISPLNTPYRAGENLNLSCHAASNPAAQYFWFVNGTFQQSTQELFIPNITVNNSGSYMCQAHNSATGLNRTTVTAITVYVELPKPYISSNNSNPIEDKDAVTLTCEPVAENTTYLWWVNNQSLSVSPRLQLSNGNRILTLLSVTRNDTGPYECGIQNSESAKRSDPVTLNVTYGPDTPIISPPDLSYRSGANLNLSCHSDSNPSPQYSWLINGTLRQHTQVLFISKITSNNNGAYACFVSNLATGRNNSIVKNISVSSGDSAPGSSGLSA


Tests used:
[1] = target: T1, human CEA protein on the cell surface; experiment: FACS, MKN45 cells
Protocol: (§1) In order to detect the binding of the antibody to the CEA protein on the cell surface, the binding activity of the antibody was determined by FACS using cells expressing CEA on the cell surface. Cells were harvested and centrifuged at 400 g at 4° C. for 5 min. Pre-cooled PBS containing FBS at final concentration 10% was added, and the mixture was centrifuged at 400 g at 4° C. for 5 min; the procedures were repeated twice. The cells were seeded into a 96-well plate at 10⁵ cells/well, and 100 μL of gradient diluted antibody solution was added to each well. The plate was incubated at 4° C. for 60 min and centrifuged, and the supernatant was removed. 250 μL of pre-cooled PBS containing FBS at final concentration 10% was added to each well to resuspend the cells, and the suspension was centrifuged at 400 g at 4° C. for 5 min, followed by the removal of the supernatant; the procedures were repeated twice. 50 μL of 1:200 diluted secondary antibody Alexa Fluor@488 goat anti-human IgG (H+L) (Lifetechologies, Cat #A11013) was added. […] 250 μL of pre-cooled PBS containing FBS at final concentration 10% was added to each cell to resuspend the cells, and the suspension was centrifuged at 400 g at 4° C. for 5 min; the procedures were repeated twice. 100 μL of pre-cooled PBS was added to each well to resuspend the cells. The plate was analyzed by a flow cytometer (BD, FACSverse) for fluorescence signal values.

[2] = target: T2, monkey CEA expressed on CHO cell surface; experiment: FACS, cynoCEA-CHO cells
Protocol: as §1

| EC50 [1] [nM] | EC50 [2] [nM] | Binder |
| --- | --- | --- |
| 2.62 | 1.32 | Hu103-4 (antibody, human IgG1, lambda) heavy: not shown light: ELVVTQSPSASASLGASVKLTCTLSSQHSTYTIEWYQQQPEKGPRYVMELKKDGSHSTGDGIPDRFSGSSSGAERYLTISSLQSEDEADYYCGVGNTIKEQFVYVFGGGTKLTVLGQPKANPTVTLFPPSSEELQANKATLVCLISDFYPGAVTVAWKADGSPVKAGVETTKPSKQSNNKYAASSYLSLTPEQWKSHRSYSCQVTHEGSTVEKTVAPTECS |
| 2.92 | 1.52 | Hu103-17 (antibody, human IgG1, lambda) heavy: not shown light: ELVLTQSPSASASLGASVKLTCTLSSQHSTYTIEWHQQQPEKGPRYLMELKKDGSHSTGDGIPDRFSGSSSGAERYLTISSLQSEDEADYYCGVGNTIKEQFVYVFGGGTKLTVLGQPKANPTVTLFPPSSEELQANKATLVCLISDFYPGAVTVAWKADGSPVKAGVETTKPSKQSNNKYAASSYLSLTPEQWKSHRSYSCQVTHEGSTVEKTVAPTECS |
| 2.38 | 1.47 | Hu103-5 (antibody, human IgG1, lambda) heavy: not shown light: ELVLTQSPSASASLGASVKLTCTLSSQHSTYTIEWYQQQPEKPPRYVMELKKDGSHSTGDGIPDRFSGSSSGAERYLTISSLQSEDEADYICGVGNTIKEQFVYVFGGGTKLTVLGQPKANPTVTLFPPSSEELQANKATLVCLISDFYPGAVTVAWKADGSPVKAGVETTKPSKQSNNKYAASSYLSLTPEQWKSHRSYSCQVTHEGSTVEKTVAPTECS |
| 2.2 | 1.62 | Hu103-7 (antibody, human IgG1, lambda, V domains shown) VH: EVQLVQSGSELKKPGASVKVSCKASGYTFTTYGVIWVRQAPGQGLEWMGWINTYSGVPTYADDFKGRFVFSLDTSVSTAYLQISSLKAEDTAVYYCARKKTLTTVTPWFAYWGQGTLVTVSS VL: ELVVTQSPSASASLGASVKLTCTLSSQHSTYTIEWYQQQPEKPPRYVMELKKDGSHSTGDGIPDRFSGSSSGADRYLTISSLQSEDEADYICGVGNTIKEQFVYVFGGGTKLTVLG |
| 1.34 | 1.17 | Hu103-21 (antibody, human IgG1, lambda) heavy: not shown light: ELVLTQSPSASASLGASVKLTCTLSSQHSTYTIEWYQQQPEKPPRYVMELKKDGSHSTGDGIPDRFSGSSSGAERYLTISSLQSEDEADYICGVGNTIKEQFVYVFGGGTKLTVLGQPKANPTVTLFPPSSEELQANKATLVCLISDFYPGAVTVAWKADGSPVKAGVETTKPSKQSNNKYAASSYLSLTPEQWKSHRSYSCQVTHEGSTVEKTVAPTECS |
| 1.27 | 1.56 | Hu103-6 (antibody, human IgG1, lambda) heavy: not shown light: ELVVTQSPSASASLGASVKLTCTLSSQHSTYTIEWYQQQPEKPPRYVMELKKDGSHSTGDGIPDRFSGSSSGAERYLTISSLQSEDEADYICGVGNTIKEQFVYVFGGGTKLTVLGQPKANPTVTLFPPSSEELQANKATLVCLISDFYPGAVTVAWKADGSPVKAGVETTKPSKQSNNKYAASSYLSLTPEQWKSHRSYSCQVTHEGSTVEKTVAPTECS |
| 2.53 | 1.01 | Hu103-13 (antibody, human IgG1, lambda) heavy: not shown light: ELVLTQSPSASASLGASVKLTCTLSSQHSTYTIEWYQQQPEKPPRYVMELKKDGSHSTGDGIPDRFSGSSSGAERYLTISSLQSEDEADYICGVGNTIKEQFVYVFGGGTKLTVLGQPKANPTVTLFPPSSEELQANKATLVCLISDFYPGAVTVAWKADGSPVKAGVETTKPSKQSNNKYAASSYLSLTPEQWKSHRSYSCQVTHEGSTVEKTVAPTECS |
| 2.19 | 0.98 | Hu103-20 (antibody, human IgG1, lambda) heavy: not shown light: ELVVTQSPSASASLGASVKLTCTLSSQHSTYTIEWYQQQPEKGPRYVMELKKDGSHSTGDGIPDRFSGSSSGAERYLTISSLQSEDEADYYCGVGNTIKEQFVYVFGGGTKLTVLGQPKANPTVTLFPPSSEELQANKATLVCLISDFYPGAVTVAWKADGSPVKAGVETTKPSKQSNNKYAASSYLSLTPEQWKSHRSYSCQVTHEGSTVEKTVAPTECS |
| 2.13 | 1.36 | Hu103-15 (antibody, human IgG1, lambda) heavy: not shown light: ELVVTQSPSASASLGASVKLTCTLSSQHSTYTIEWYQQQPEKPPRYVMELKKDGSHSTGDGIPDRFSGSSSGADRYLTISSLQSEDEADYICGVGNTIKEQFVYVFGGGTKLTVLGQPKANPTVTLFPPSSEELQANKATLVCLISDFYPGAVTVAWKADGSPVKAGVETTKPSKQSNNKYAASSYLSLTPEQWKSHRSYSCQVTHEGSTVEKTVAPTECS |
| 2.95 | 1.61 | Hu103-9 (antibody, human IgG1, lambda) heavy: not shown light: ELVLTQSPSASASLGASVKLTCTLSSQHSTYTIEWHQQQPEKGPRYLMELKKDGSHSTGDGIPDRFSGSSSGAERYLTISSLQSEDEADYYCGVGNTIKEQFVYVFGGGTKLTVLGQPKANPTVTLFPPSSEELQANKATLVCLISDFYPGAVTVAWKADGSPVKAGVETTKPSKQSNNKYAASSYLSLTPEQWKSHRSYSCQVTHEGSTVEKTVAPTECS |
| 2.23 | 1 | Hu103-10 (antibody, human IgG1, lambda) heavy: not shown light: ELVLTQSPSASASLGASVKLTCTLSSQHSTYTIEWYQQQPEKGPRYLMELKKDGSHSTGDGIPDRFSGSSSGAERYLTISSLQSEDEADYYCGVGNTIKEQFVYVFGGGTKLTVLGQPKANPTVTLFPPSSEELQANKATLVCLISDFYPGAVTVAWKADGSPVKAGVETTKPSKQSNNKYAASSYLSLTPEQWKSHRSYSCQVTHEGSTVEKTVAPTECS |
| 2.75 | 0.89 | Hu103-18 (antibody, human IgG1, lambda) heavy: not shown light: ELVLTQSPSASASLGASVKLTCTLSSQHSTYTIEWYQQQPEKGPRYLMELKKDGSHSTGDGIPDRFSGSSSGAERYLTISSLQSEDEADYYCGVGNTIKEQFVYVFGGGTKLTVLGQPKANPTVTLFPPSSEELQANKATLVCLISDFYPGAVTVAWKADGSPVKAGVETTKPSKQSNNKYAASSYLSLTPEQWKSHRSYSCQVTHEGSTVEKTVAPTECS |
| 2.41 | 1.37 | Hu103-14 (antibody, human IgG1, lambda) heavy: not shown light: ELVVTQSPSASASLGASVKLTCTLSSQHSTYTIEWYQQQPEKPPRYVMELKKDGSHSTGDGIPDRFSGSSSGAERYLTISSLQSEDEADYICGVGNTIKEQFVYVFGGGTKLTVLGQPKANPTVTLFPPSSEELQANKATLVCLISDFYPGAVTVAWKADGSPVKAGVETTKPSKQSNNKYAASSYLSLTPEQWKSHRSYSCQVTHEGSTVEKTVAPTECS |
| 2.38 | 1.08 | Hu103-12 (antibody, human IgG1, lambda) heavy: not shown light: ELVVTQSPSASASLGASVKLTCTLSSQHSTYTIEWYQQQPEKGPRYVMELKKDGSHSTGDGIPDRFSGSSSGAERYLTISSLQSEDEADYYCGVGNTIKEQFVYVFGGGTKLTVLGQPKANPTVTLFPPSSEELQANKATLVCLISDFYPGAVTVAWKADGSPVKAGVETTKPSKQSNNKYAASSYLSLTPEQWKSHRSYSCQVTHEGSTVEKTVAPTECS |
| 2.42 | 0.96 | Hu103-19 (antibody, human IgG1, lambda) heavy: not shown light: ELVLTQSPSASASLGASVKLTCTLSSQHSTYTIEWYQQQPEKGPRYVMELKKDGSHSTGDGIPDRFSGSSSGAERYLTISSLQSEDEADYYCGVGNTIKEQFVYVFGGGTKLTVLGQPKANPTVTLFPPSSEELQANKATLVCLISDFYPGAVTVAWKADGSPVKAGVETTKPSKQSNNKYAASSYLSLTPEQWKSHRSYSCQVTHEGSTVEKTVAPTECS |

Source: patent publication US20230055408A1 (JIANGSU HENGRUI MEDICINE, published 2023)
